Test results reported in patent publication US20060177448.

Experiments:
[1] = tested on: other HER receptors
[2] = target: gDHER2(DIV)-IgG (UniProt P04626)

| Substance | in vitro cleavage of HER-Fc proteins [1] | in vitro HER2 cleavage (sheddase) assay, stained gel [2] |
| --- | --- | --- |
| MMP-15 (MT2-MMP), construct not specified at that place | MMP-15 does not clip other HER receptors |  |
| purified catalytic domain of MT2-MMP (MMP-15) |  | All MT-MMPs except MMP-14 efficiently cleave gDHER2(DIV)-IgG substrate |
| purified catalytic domain of MT3-MMP (MMP-16) |  | All MT-MMPs except MMP-14 efficiently cleave gDHER2(DIV)-IgG substrate |
| purified catalytic domain of MT4-MMP (MMP-19) |  | All MT-MMPs except MMP-14 efficiently cleave gDHER2(DIV)-IgG substrate |
